B1: Pistol ribozyme (parent)
chain: GGGUCGUUGUUCCAUAAUCGCGUGGAUAUGGCACGCAAGUUUCUACCGGGCACCGUAAAUGUCCGACUGGAGCCGUUCGGGCGGCUAUAAACAGACCUCAGGCCCGAAGCGUGGCGGCACCUGCCGCCGGUGGUAAAAAAGAUCGGAAGAGCACACGUCU

Variants of: B1
Assay: aptazyme ON/OFF ratio, guanine; higher = stronger switching; co-transcriptional cleavage with and without guanine

Point of comparison: U7C U8A U10G U11G C13U, “aptazyme ON/OFF ratio” value 1.32. Against it:
- U7C U8A G9U U10G U11C C13G — lower, 1.07
- U7C U8A G9U U10G U11C C13U — lower, 1.05
- U7C U8A G9U U10G U11C C13A — lower, 1.2
- U7C U8A G9U U11G C12U C13U — lower, 1.24
- U7C U8A G9U U11G C12U C13G — lower, 1.17
- U7C U8A G9U U11G C12U C13A — lower, 1.22
- U7C U8A U10A C12U C13G — lower, 1.18
- U7C U8A U10A C12U C13U — lower, 1.3
- U7C U8A U10A C12U C13A — lower, 1.22
- U7C U8C — higher, 3.51
- U7C U8A G9U U10G U11C — lower, 1.07
- U7C U8A G9U U10G U11G — lower, 1.08
- U7C U8A U10G U11G C12G C13U — lower, 1.25
- U7C U8A U10G U11G C12G C13G — lower, 1.17
- U7C U8A U10G U11G C12G C13A — lower, 1.08
- U7C U8A U10C U11C C12U C13G — lower, 1.05
- U7C U8A U10C U11C C12U C13A — lower, 1.06
- U7C U8A U10C U11C C12U C13U — lower, 1.06
- U7C U8C C12A C13A — lower, 1.23
- U7C U8C C12A C13G — lower, 1.1
- U7C U8C C12A C13U — higher, 1.34
- U7C U8A U10C U11G C12G C13G — lower, 1.08
- U7C U8A U10C U11G C12G C13U — lower, 1.08
- U7C U8A U10C U11G C12G C13A — lower, 1.15
- U7C U8A U10G U11G C12U C13U — higher, 1.44
- U7C U8A U10G U11G C12U C13G — lower, 1.22
- U7C U8A U10G U11G C12U C13A — lower, 1.21
- U7C U8C C12A — higher, 1.37
- U7C U8C C12G — lower, 1.18
- U7C U8A U10A U11A C12U C13A — lower, 1.23
- U7C U8A U10A U11A C12U C13G — higher, 1.35
- U7C U8A U10A U11A C12U C13U — lower, 1.13
- U7C U8A U10C U11G C13G — lower, 1.1
- U7C U8A U10C U11G C13U — lower, 1.16
- U7C U8A U10C U11G C13A — lower, 1.17
- U7C U8A U10A U11C C12G — lower, 1.13
- U7C U8A U10A U11C C12A — lower, 1.09
- U7C U8A U10A U11C C12U — lower, 1.01
- U7C U8A U10G U11C C12U C13A — higher, 1.35
- U7C U8A U10G U11C C12U C13U — higher, 1.41
- U7C U8A U10G U11C C12U C13G — lower, 1.23
- U7C U8A U10A U11G C12U C13A — lower, 1.18
- U7C U8A U10A U11G C12U C13U — lower, 1.2
- U7C U8A U10A U11G C12U C13G — lower, 1.29
- U7C U8A U11A C12U C13A — lower, 1.16
- U7C U8A U11A C12U C13U — lower, 1.24
- U7C U8A U11A C12U C13G — lower, 1.15
- U7C U8A U11G — lower, 1.18
- U7C U8A U11A — lower, 1.13
- U7C U8A U11C — lower, 1.1
- U7C U8A U10C C12G — higher, 1.63
- U7C U8A U10C C12U — higher, 3.73
- U7C U8A U10C C12A — higher, 1.41
- U7C U8A G9U U10G U11A C12U C13A — lower, 1.12
- U7C U8A G9U U10G U11A C12U C13U — lower, 1.1
- U7C U8A G9U U10G U11A C12U C13G — lower, 1.11
- U7C U8A U10A U11C C12U C13A — lower, 1.08
- U7C U8A U10A U11C C12U C13U — lower, 1.04
- U7C U8A U10A U11C C12U C13G — lower, 1.04
- U7C U8A U10G U11A C12A C13A — lower, 1.14
- U7C U8A U10G U11A C12A C13G — lower, 1.08
- U7C U8A U10G U11A C12A C13U — lower, 1.24
- U7C U8A U10C U11C C13G — lower, 1.09
- U7C U8A U10C U11C C13U — lower, 1.01
- U7C U8A U10C U11C C13A — lower, 1.04
- U7C U8A U11G C12G — lower, 1.19
- U7C U8A U11G C12U — lower, 1.3
- U7C U8A U11G C12A — lower, 1.08
- U7C U8A U10A C12G — lower, 1.19
- U7C U8A U10A C12A — lower, 1.3
- U7C U8A U10A C12U — lower, 1.13
- U7C U8A U11C C12G — higher, 1.36
- U7C U8A U11C C12A — higher, 1.35
- U7C U8A U11C C12U — higher, 1.44
- U7C U8A U10C U11A C12U C13A — lower, 1.16
- U7C U8A U10C U11A C12U C13G — lower, 1.17
- U7C U8A U10C U11A C12U C13U — lower, 1.16
- U7C U8A G9U U10G U11A C12U — lower, 1.06
- U7C U8A G9U U11C C13A — lower, 1.04
- U7C U8A G9U U11C C13G — lower, 1.03
- U7C U8A G9U U11C C13U — lower, 1.03
- U7C U8A U10G C12G C13A — lower, 1.13
- U7C U8A U10G C12G C13U — higher, 1.41
- U7C U8A U10G C12G C13G — lower, 1.15
- U7C U8A G9U U11G C12G — lower, 1.15
- U7C U8A G9U U11G C12A — lower, 1.09
- U7C U8A G9U U11G C12U — higher, 1.4
- U7C U8A U10A U11C C12A C13U — lower, 1.06
- U7C U8A U10A U11C C12A C13A — lower, 1.06
- U7C U8A U10A U11C C12A C13G — lower, 1.06
- U7C U8A U10A U11G C13U — lower, 1.21
- U7C U8A U10A U11G C13G — lower, 1.04
- U7C U8A U10A U11G C13A — lower, 1.15
- U7C U8A U10C U11G C12A C13U — lower, 1.14
- U7C U8A U10C U11G C12A C13A — lower, 1.16
- U7C U8A U10C U11G C12A C13G — lower, 1.21
- U7C U8A U10A U11G C12A — lower, 1.06
- U7C U8A U10A U11G C12G — lower, 1.19
- U7C U8A U10A U11G C12U — lower, 1.24
- U7C U8A U10G C12U — higher, 1.34
- U7C U8A U10G C12A — lower, 1.21
- U7C U8A U10G C12G — higher, 1.34
- U7C U8A U10G U11G C13A — lower, 1.23
- U7C U8A U10G U11G C13G — lower, 1.12
- U7C U8A U10G U11C C13A — lower, 1.08
- U7C U8A U10G U11C C13U — lower, 1.05
- U7C U8A U10G U11C C13G — lower, 1.08
- U7C U8A G9U U11C C12U C13A — lower, 1.05
- U7C U8A G9U U11C C12U C13U — lower, 1.21
- U7C U8A G9U U11C C12U C13G — lower, 1
- U7C U8A U10G U11A C12G C13U — lower, 1.29
- U7C U8A U10G U11A C12G C13G — lower, 1.18
- U7C U8A U10G U11A C12G C13A — lower, 1.12
- U7C U8A U10A U11A C12G C13G — lower, 1.31
- U7C U8A U10A U11A C12G C13A — lower, 1.23
- U7C U8A U10A U11A C12G C13U — lower, 1.23
- U7C U8A U10A C13A — lower, 1.07
- U7C U8A U10A C13G — lower, 1.08
- U7C U8A U10A C13U — lower, 1.06
- U7C U8A U10C U11G C12U C13G — lower, 1.16
- U7C U8A U10C U11G C12U C13A — lower, 1.28
- U7C U8A U10C U11G C12U C13U — higher, 1.35
- U7C U8A G9U U10G U11C C12U C13A — lower, 1.16
- U7C U8A G9U U10G U11C C12U C13U — lower, 1.22
- U7C U8A G9U U10G U11C C12U C13G — lower, 1.14
- U7C U8A U10G U11A C12U C13A — lower, 1.3
- U7C U8A U10G U11A C12U C13U — higher, 1.33
- U7C U8A U10G U11A C12U C13G — lower, 1.24
- U7C U8A U10G U11C C12A C13G — lower, 1.11
- U7C U8A U10G U11C C12A C13U — higher, 1.45
- U7C U8A U10G U11C C12A C13A — higher, 1.37
- U7C U8A G9U U11G — lower, 1.21
- U7C U8A G9U U11A — lower, 1.08
- U7C U8A G9U U11C — lower, 1.07
- U7C U8A U11C C13U — lower, 1.04
- U7C U8A U11C C13G — lower, 1.06
- U7C U8A U11C C13A — lower, 1.1
- U7C U8A U10C C12U C13U — higher, 1.54
- U7C U8A U10C C12U C13A — lower, 1.17
- U7C U8A U10C C12U C13G — lower, 1.17
- U7C U8A G9U U11A C13U — lower, 1.17
- U7C U8A G9U U11A C13G — lower, 1.05
- U7C U8A G9U U11A C13A — lower, 1.2
- U7C U8A U11G C12A C13A — lower, 1.11
- U7C U8A U11G C12A C13U — lower, 1.24
- U7C U8A U11G C12A C13G — lower, 1.14
- U7C U8A U10A U11A C12A C13U — lower, 1.31
- U7C U8A U10A U11A C12A C13A — lower, 1.25
- U7C U8A U10A U11A C12A C13G — lower, 1.17
- U7C U8A G9U U11A C12U — lower, 1.06
- U7C U8A G9U U11A C12A — lower, 1.19
- U7C U8A G9U U11A C12G — lower, 1.14
- U7C U8A G9U U11A C12A C13A — lower, 1.08
- U7C U8A G9U U11A C12A C13U — higher, 1.41
- U7C U8A G9U U11A C12A C13G — lower, 1.18
- U7C U8A U10C U11A C12G C13G — lower, 1.25
- U7C U8A U10C U11A C12G C13A — lower, 1.14
- U7C U8A U10C U11A C12G C13U — lower, 1.09
- U7C U8A U10C U11A C12A C13A — lower, 1.2
- U7C U8A U10C U11A C12A C13G — lower, 1.17
- U7C U8A U10C U11A C12A C13U — lower, 1.14
- U7C U8A U10G C13U — lower, 1.28
- U7C U8A U10G C13A — higher, 1.52
- U7C U8A U10G C13G — lower, 1.14
- U7C U8A G9U U11A C12U C13A — lower, 1.16
- U7C U8A G9U U11A C12U C13U — lower, 1.22

Reference: the RNAGym collection of RNA variant scans (doi:10.1021/acssynbio.7b00057)
